Data from article doi:10.1101/2022.11.11.516238.

Legend:
[1] = target: T1, NhaR (Vibrio parahaemolyticus) (UniProt Q87S97); experiment: EMSA
T1 sequence: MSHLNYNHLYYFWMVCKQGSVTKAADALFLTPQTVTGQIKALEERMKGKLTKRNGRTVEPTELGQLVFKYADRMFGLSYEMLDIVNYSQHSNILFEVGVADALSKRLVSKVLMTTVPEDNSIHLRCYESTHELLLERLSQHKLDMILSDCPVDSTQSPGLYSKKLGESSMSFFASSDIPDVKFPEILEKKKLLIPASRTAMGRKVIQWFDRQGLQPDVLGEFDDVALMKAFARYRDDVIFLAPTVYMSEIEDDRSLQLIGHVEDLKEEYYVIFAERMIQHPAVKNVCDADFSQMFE

[2] = target: T2, LeuO (Vibrio parahaemolyticus) (UniProt Q87SS2); experiment: EMSA
T2 sequence: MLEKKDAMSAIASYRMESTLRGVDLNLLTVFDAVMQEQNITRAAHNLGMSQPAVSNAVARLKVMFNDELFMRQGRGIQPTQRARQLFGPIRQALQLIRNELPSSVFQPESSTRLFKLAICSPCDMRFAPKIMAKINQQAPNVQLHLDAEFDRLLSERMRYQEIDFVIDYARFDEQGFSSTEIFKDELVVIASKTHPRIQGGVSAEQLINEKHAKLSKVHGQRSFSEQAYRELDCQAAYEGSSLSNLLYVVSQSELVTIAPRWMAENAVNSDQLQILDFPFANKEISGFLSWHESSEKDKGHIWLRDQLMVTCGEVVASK

Sequence | binding [1] | binding [2]
CCAAGGTGCTGATGTGATCATTTTGAAATACATATCCTTTGACGTCTAATTAAATTTCGTATTTATTATGGACATTCTTTACGGTTGAAAATCAAATAATCTGCGTTTTAATCTGGATTAATGTG (double strand) [PectA probe 1A] | binds | binds
CCACGACGACAAAACTAACCTTAAAACGGCATGCGAAAGTGTGCCGTTTTTTTATGTAAAAAACCTTAAGTCCCCTCTTTGAAACCCCACTGCATTCTGACTCAT (double strand) [PectA probe 1C] | binds | binds
